Our source for the abundance fitness values is the Human Domainome abundance scans (Beltran et al. 2025).

± gives the uncertainty stated by the source.

B1: Neutrophil cytosol factor 2, residues 456 to 514; numbered along this chain, P19878 (parent)
chain: LKKGSQVEALFSYEATQPEDLEFQEGDIILVLSKVNEEWLEGECKGKVGIFPKVFVEDC

The variants in the series derive from B1. Kind of series: abundance fitness (aPCA) (normalised: wild type 0, dead -1); higher = more abundant; growth selection in yeast, the domain comes from the species named. Particulars: Homo sapiens.
Turning to LKKGSIVEALFSYEATQPEDLEFQEGDIILVLSKVNEEWLEGECKGKVGIFPKVFVEDC, the abundance fitness was -0.133 ± 0.36.

Turning to LKKGSRVEALFSYEATQPEDLEFQEGDIILVLSKVNEEWLEGECKGKVGIFPKVFVEDC, the abundance fitness came out at 0.028 ± 0.11.

With LKKGSQVEALFSYEATQPEDLEFQEGDIILVLSKVNEEWLEGECKGAVGIFPKVFVEDC, the abundance fitness was -1.04 ± 0.27. Take LKKGSQVEALFSYEATQDEDLEFQEGDIILVLSKVNEEWLEGECKGKVGIFPKVFVEDC: the abundance fitness is 0.315 ± 0.12. Consider LKKGSQVEALFSYEATQPEDLEFQEGDIIQVLSKVNEEWLEGECKGKVGIFPKVFVEDC, for which the abundance fitness turned out to be 0.5 ± 0.16.

With LKKGSQVEALFSYEATQPEDLEFQEGDIIGVLSKVNEEWLEGECKGKVGIFPKVFVEDC, the abundance fitness is -0.2 ± 0.097.

As to LKKGSQVEALFSYEATQPEDLEFGEGDIILVLSKVNEEWLEGECKGKVGIFPKVFVEDC, the abundance fitness was -0.805 ± 0.14. The value for LKKGSQVEALFSYEATQPEDLEFQEGDIILVLSKVNEEWLEGECKGKVGIFPKVFWEDC was -0.46 ± 0.27; that for LKKGSQVEALFSYEATQPEDLEFQEGDIILVLSKVNEEWLEWECKGKVGIFPKVFVEDC was -0.322 ± 0.17; that for LKKGSQVEALFSYEATQPEDLPFQEGDIILVLSKVNEEWLEGECKGKVGIFPKVFVEDC was -0.225 ± 0.21. Consider LKKGSQVEALFSYEATQPEDLRFQEGDIILVLSKVNEEWLEGECKGKVGIFPKVFVEDC, for which the abundance fitness is -0.368 ± 0.15. With LKKGSQVSALFSYEATQPEDLEFQEGDIILVLSKVNEEWLEGECKGKVGIFPKVFVEDC the figure was 0.048 ± 0.12; with LKKGSQVIALFSYEATQPEDLEFQEGDIILVLSKVNEEWLEGECKGKVGIFPKVFVEDC, 0.744 ± 0.2.

LKKGSQVEALFSYEATQPEDLEFQEGDIILVLSKVNEEWLEGECKGKVGIMPKVFVEDC: the abundance fitness was 0.006 ± 0.21. LKKGSQVEALFSYEATQPEDLEFQEGDIILVLSKVNEEWLEGECHGKVGIFPKVFVEDC: the abundance fitness was 0.232 ± 0.12. Consider LKKGSQVEALFSYEATQPEDLEFQEGDIILVLSKVNEEWLEGECRGKVGIFPKVFVEDC, for which the abundance fitness worked out at 0.012 ± 0.11. Consider LKKGSQVEALFSYEATQPEDLEFQEGDIILVLSKVNEECLEGECKGKVGIFPKVFVEDC, for which the abundance fitness is -0.379 ± 0.099.

Consider LKKGSQVEALFSYEATQPTDLEFQEGDIILVLSKVNEEWLEGECKGKVGIFPKVFVEDC, for which the abundance fitness was -0.055 ± 0.12. In the case of LKKGSQVEALFSYEATQPEDLEFQEGDIILVLSKVNEEWLEGECKGKVTIFPKVFVEDC, the abundance fitness is -0.951 ± 0.25. With LKKGSQVEALESYEATQPEDLEFQEGDIILVLSKVNEEWLEGECKGKVGIFPKVFVEDC the figure was -0.572 ± 0.41. On to LKKGSQVEALCSYEATQPEDLEFQEGDIILVLSKVNEEWLEGECKGKVGIFPKVFVEDC, for which the abundance fitness is 0.418 ± 0.14. As to LKKPSQVEALFSYEATQPEDLEFQEGDIILVLSKVNEEWLEGECKGKVGIFPKVFVEDC, the abundance fitness is -0.208 ± 0.25. For the variant LKKVSQVEALFSYEATQPEDLEFQEGDIILVLSKVNEEWLEGECKGKVGIFPKVFVEDC, the abundance fitness was -0.452 ± 0.17. LKKGSQVEALFSYEATQPEDLEFQEGDIILVLVKVNEEWLEGECKGKVGIFPKVFVEDC: the abundance fitness is -0.091 ± 0.081.

With LKKGSQVEALFSYEATQPEDLEFQEGDIILVLGKVNEEWLEGECKGKVGIFPKVFVEDC, the abundance fitness came to 0.378 ± 0.069. Take LKKGSQVEALFSYEATQPEDLEFQEGDIILVLSKVNPEWLEGECKGKVGIFPKVFVEDC: the abundance fitness is -0.903 ± 0.27. In the case of LKKGSQVEALFSYEATQPEDLEFQEGDIILVLSKVNVEWLEGECKGKVGIFPKVFVEDC, the abundance fitness was 0.085 ± 0.099.

For LKKGSQVEALFCYEATQPEDLEFQEGDIILVLSKVNEEWLEGECKGKVGIFPKVFVEDC, the abundance fitness is -0.595 ± 0.17.

For the variant LKKGSQVEALFSYEATQPEDLEFQEGDIILVLSKVNEEWLEGEDKGKVGIFPKVFVEDC, the abundance fitness is -0.557 ± 0.15. As for LKKGSQVEALFSYEATQPEDLEFQEGDIILVLSKVNEEWLEGEPKGKVGIFPKVFVEDC, the abundance fitness was -0.583 ± 0.2. As for LKKGSQVEALFSYEATQPEDLEFQEGDIILVLSKVNEEWLEGEHKGKVGIFPKVFVEDC, the abundance fitness is -0.806 ± 0.19. As to LKKGSQVEALFSYEATQPEDLEFQEGDIILVLSKVNEEWLWGECKGKVGIFPKVFVEDC, the abundance fitness was -0.267 ± 0.23. Take LKKGSQVEALFSYEATQPEDLEFQEGDIILVLSKVNEEWLFGECKGKVGIFPKVFVEDC: the abundance fitness was 0.248 ± 0.083. With LKKGSQVEALFSYEATQPEDLEFQEGDIILVLSKVNEEWLEGECKGKVGIFPKVKVEDC, the abundance fitness was -0.584 ± 0.37.

As to LKKGSQVEALFSYEATQPEDLEFQEGDIILVLSKVNEEWLEGECKGKVGIFPKVCVEDC, the abundance fitness is 0.597 ± 0.082. Regarding LKKGSQVEALFSYEATQPEDCEFQEGDIILVLSKVNEEWLEGECKGKVGIFPKVFVEDC, the abundance fitness is -0.585 ± 0.14. For the variant LKKGSQVEALFSYEATQPEDLEIQEGDIILVLSKVNEEWLEGECKGKVGIFPKVFVEDC, the abundance fitness was -0.374 ± 0.13. In the case of LKKGSQVEALFSYEATQPEDLECQEGDIILVLSKVNEEWLEGECKGKVGIFPKVFVEDC, the abundance fitness is -0.218 ± 0.11. For LKKGSQVEALFSYEATQPEDLEFQEGDIILVLSKVNEEWAEGECKGKVGIFPKVFVEDC, the abundance fitness is -0.731 ± 0.18. In the case of LKKGSQVEALFSYEATQPEDLEFQEGDIILVLSKVNEEWSEGECKGKVGIFPKVFVEDC, the abundance fitness was -0.729 ± 0.15. For LKKGSQVEALFSYEATQPEDLEFQEGDIILVLSKVREEWLEGECKGKVGIFPKVFVEDC, the abundance fitness is -0.963 ± 0.19. The value for LKKGSQVEALFSYEATQPEDLEFQEGDIILVLSKVPEEWLEGECKGKVGIFPKVFVEDC was -1.03 ± 0.29; that for LPKGSQVEALFSYEATQPEDLEFQEGDIILVLSKVNEEWLEGECKGKVGIFPKVFVEDC was 0.067 ± 0.21; that for LNKGSQVEALFSYEATQPEDLEFQEGDIILVLSKVNEEWLEGECKGKVGIFPKVFVEDC was 0.141 ± 0.32. LKKGSQVEALFSDEATQPEDLEFQEGDIILVLSKVNEEWLEGECKGKVGIFPKVFVEDC: the abundance fitness is -0.646 ± 0.17.
